From the RNAGym collection of RNA variant scans (doi:10.1073/pnas.2313332121)

B1: TPR t1 (parent)
chain: GACCAAUCUGCCCUCAGAGCUCGAGAACAUCUUCGGAUGCAGAGGAGGCAGGCUUCGGUGGCGCGAUAGCGCCAACGUCCUCAACCUCCAAUGCAUCCCACCACAUGAUGAUGCCUGAAGAGCCUUGGUUUUUUG

Variants of: B1
Assay: polymerase ribozyme fitness, log enrichment relative to wild type (log ratio); higher = more active; in vitro selection for triplet polymerase activity
Procedure, shortened: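 For each subunit of a heterodimeric triplet polymerase ribozyme, a mutant library was built by PCR and transcribed, then taken through a single in vitro selection round in triplicate. Selection involved annealing to a biotinylated primer, the partner subunit and triplets, incubation frozen at −7 °C, gel excision of extended constructs, capture on streptavidin beads and RT-PCR. Genotypes were retained after Illumina sequencing of inputs and outputs only with ≥10 input reads and ≥1 read in each output. Fitness is defined as the logarithm of a genotype's enrichment relative to wild-type enrichment, using inverse-variance-weighted averages across replicates, with the logarithm taken to base 2.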

| Variant | polymerase ribozyme fitness (log ratio) |
| --- | --- |
| A27U G107A A121U G128U G135C | -3.88 |
| A27U C49U A90G G93U | -3.23 |
| A27G A105C | -3.41 |
| A26U C70U U78C | -4.92 |
| A26G C73A A74U U78A | -2.49 |
| A24G C49A G65C C70A G113U | -6.47 |
| A26U C62U U78C G128C | -6.34 |
| A27U C49G G51U C79G | -6.98 |
| A27G G51A U78C | -3.93 |
| A24U A84U C114U G122A U132C | -6.39 |
| A26G C94G A105C C123G | -5.27 |
| A26G U59A C62A G63A | -5.96 |
| A27U U81C G120A G135A | -4.49 |
| G23A G69U G93U | -4.63 |
| A27G A84C C99U | -5.83 |
| G23C G69A G120A A121U C123U U129C | -6.52 |
| A27U A90U | -5.37 |
| C28A G61A | -4.06 |
| A27U C104U A111C G120C | -6.95 |
| A27U C53G A66G | -4.36 |
| A24U A46G G48A C70A A111G | -6.69 |
| A27G C64U C73U | -2.48 |
| A27C G57U G69U C124G | 0.217 |
| A27U U59C | -3.53 |

| Variant | polymerase ribozyme fitness (log ratio) |
| --- | --- |
| A24G G69U A100U | -1.09 |
| A26U A121U | -0.422 |
| A27U A46U | -4.77 |
| A24C A43U C49A C79A C98U C114U | -7.85 |
| A26U C40A | -4.26 |
| A26U C40U | -4.02 |
| A24U G117U | -6.09 |
| A24U G61A | -5.9 |
| G25U C80A C88U A121C | -6.51 |
| G23U G45A C56U C98A U112G | -6.47 |
| A24C U32C C73A U96G A111U | -7.08 |
| A26U A84C C102U C115A U133G | -6.15 |
| A24C A27G | -6.86 |
| A24G A29U G44U C80A | -6.46 |
| G23A C73A A83G G120U | -6.38 |
| G25U A37U | -5.61 |
| A26G G44U C56U G120U U130A | -2.98 |
| G25A A121C | -4.05 |
| A24G C40U C62G | -3.54 |
| C28A C72U C123U | -3.7 |
| A26U G48A C72U | -3.67 |
| A26G A37U C123U U133A | -2.78 |
| A24U C94U A103U G110C G120C U131A | -5.54 |
| C28A C88G G120A | -3.89 |

| Variant | polymerase ribozyme fitness (log ratio) |
| --- | --- |
| A26G G60U G77A A84C C102G U112A U116C | -5.99 |
| A27U G61U C102U U109G | -5.55 |
| C28A C76G G120A | -4.53 |
| A26G G93A C114A | -3.14 |
| G23U G120A | -6.57 |
| A26G A29G G39U | -3.81 |
| G23U A26C A43U G63U G93A G117C | -6.53 |
| A27C A50C A84C G120A | -3.23 |
| G25C G61U | -3.53 |
| A26G A66C G113C U126G | -6.73 |
| A27U G69U | -1.45 |
| A27G C40U C49G C73U | -2.98 |
| A24G G110A U116G C124A | -6.51 |
| A27G C49U C123A | -1.76 |
| A27C C72U C124A | -1.07 |
| A24G U38A U55A | -2.85 |
| C28A G44U U78G G113A | -4.24 |
| A27C G60A G110A | -6.05 |
| G25A C40U G63A G113C U129A | -6.66 |
| A24U C40U | -6.96 |
| A27U C94U U106A G110U | -2.09 |
| A26C U112C | -4.51 |
| A27G C86U C94U | -1.98 |
| A24C C40U G42A C73A A95U C101U G120A U130C | -7.09 |

| Variant | polymerase ribozyme fitness (log ratio) |
| --- | --- |
| A24G G48A C64U U81C A108U G120C | -6 |
| C28A G39U A83C C123U U133A | -4 |
| A27C C31U A46C A84C C89A G110U U112A C123U U125A | -6.63 |
| A27C U78A | -3.62 |
| A26U C72U C123U | -2.2 |
| G25A C64U | -4.8 |
| A27U G51A A74C A83C | -7.03 |
| C28A A119U | -4.75 |
| A27U A29G A83C | -2.59 |
| G25U A37U C40U G44U G47C C64A U106G U112A | -6.12 |
| A26C C73A U81C C88A A108G C114G A119U | -6.8 |
| A27G G51U G61A U92A | -6.49 |
| A24U A119G | -6.17 |
| A27U U55G C56A G61A C62G U112C G120U G128A U130C | -7.21 |
| A27G C49A U96A | -3.34 |
| A26G C28G C70G C85U C98U G107U A119G G122A | -6.27 |
| A24C G48C U87A C97U C124A | -7.52 |
| A27G C72U | -1.76 |
| A26U C53U A74G G77U U125A | -4.77 |
| A27U G44U C101G A111C | -7.22 |
| C28A C64U C70A C99U G110U G120C U132A | -7.34 |
| A27G A46G C72U | -3.52 |
| A24G A119G A121U | 1.12 |
| G25U C56G G63C A121U | -5.04 |

| Variant | polymerase ribozyme fitness (log ratio) |
| --- | --- |
| G23A U106A | -3.44 |
| G23A G51A A111G | -6 |
| A27C G61C | -5.63 |
| G23U G63C | -6.19 |
| A24C G51U G61C C79A C102A G110U | -6.53 |
| A27U G60U C82A U125G | -3.48 |
| A26U G52A U112A U131C | -2.99 |
| A27G U38C C40G C49G G63U A95G U132A | -3.68 |
| A26U C94U | -2.76 |
| G23U G69C G120A | -5.9 |
| A26U C72U | -2.63 |
| A27U A118G | -3.19 |
| A26G U130A | -3.31 |
| G25U G39U U106A C114U | -5.15 |
| A24G G63C G71U C123G | -5.78 |
| G25C A119G | -6.74 |
| A26U G69C | -4.28 |
| A27U A50U | -4.65 |
| G23C A26G C98U A105G C114G | -7.07 |
| G25A G63C | -6.68 |
| A27U G47A U125G | -2.83 |
| A26G C28A G113A | -4.3 |
| A24G U54A A68U G71A U112A | -8.22 |
| A27U G57C C89G G120A U131A | -4.12 |

| Variant | polymerase ribozyme fitness (log ratio) |
| --- | --- |
| A26U G120U | -3.12 |
| A27U C72U A83U G127A | -4.42 |
| A27G C53G | -1.84 |
| A27G C56A A74C U87A U112A | -0.205 |
| A27U C40U C82A | -3.5 |
| A24G G52A | -1.78 |
| A24G G47C A90U | -4.32 |
| A26C C88U | -5.08 |
| A24G C70G C97A A121G | -5.13 |
| A27U C76U A95G U130G | -4.08 |
| A27C U54C | -2.56 |
| G23U A26G A37U G69U | -5.18 |
| A27C C82G G110U | -5.23 |
| A24G A41C | -2.27 |
| G23C C70G | -7.47 |
| A27C A84G | -5 |
| G25A C124U | -5.31 |
| G25A C124G | -5.14 |
| A27C C72G U112C G120C U126C U131A | -4.66 |
| G25A G71A C79G C115U | -7.59 |
| A27C C72A | -3.22 |
| A24G C85A U96A | -3.35 |
| A27U G39U | -4.25 |
| A27U G39C | -3.26 |

| Variant | polymerase ribozyme fitness (log ratio) |
| --- | --- |
| A26C A43G G69A U78G C82G C115A C123U U130G | -6.36 |
| A26G C86U | -2.13 |
| A27C A41C U106C | -5.25 |
| A27G U112A | 1.03 |
| C28A G61A G93A C123A | -3.78 |
| A27U C49G U54C | -3.58 |
| A24U G42U A43U C94G U112A U129A | -7.92 |
| A27U G60C C82G G120C G128U | -4.87 |
| A26U A41C | -4.03 |
| G25C C97U C104A U109G | -6.31 |
| A27G A37U A121G | 0.646 |
| A26U C79G C124U | -4.91 |
| A26U G44U C64G C89U U112G | -6.55 |
| G25A G61U | -3.17 |
| A27G G39U C73U G110C | -3.91 |
| A26G U112G | -0.342 |
| A26U U54C | -2.99 |
| A24C A50C G52U A111C | -6.93 |
| A27G A41U G48A C88A | -5.84 |
| G25A C64G U81A C114A | -5.93 |
| G25A C49A G57A C89U C97G C115G | -6.47 |
| A26U U78C | -2.92 |
| A27C C28A A103U A105U U106G A111U G117U C123U | -5.3 |
